Here are results for 2 substances from publication PMC11659893.

The target of assay [1] is Triticum aestivum chlorophyllase (Tachlorophyllase), wild type (Triticum aestivum). Briefly: SEC-MALS + other: dynamic light scattering. (In general: In gel filtration, larger molecules generally elute earlier.)
Assay [2] addresses Tachlorophyllase H76S/E79S/C270S triple variant (Triticum aestivum). The experiment in a line: SEC-MALS + other: dynamic light scattering.

For orientation: stoichiometry N means a count of units in the complex or per binding partner. Consider “Triticum aestivum chlorophyllase (Tachlorophyllase), wild type (enzyme)”, for which the stoichiometry N in assay [1] amounted to 2.
On to “Tachlorophyllase H76S/E79S/C270S triple variant (enzyme)”, for which, in assay [2], the stoichiometry N was found to be 2.
